Assay: soluble on expression in E. coli; label from the status in PepcDB or PDB records

Question: For “MSSNPLRFFVLTIFPHIISCYSEYGIVKQAIKKGKVEVYPIDLREFAPKGQVDDVPYGGLPGMVLKPEPIYEAYDYVVENYGKPFVLITEPWGEKLNQKLVNELSKKERIMIICGRYEGVDERVKKIVDMEISLGDFILSGGEIVALAVIDAVSRVLPGVLSEPQSIQEDSFQNRWLGYPVYTRPREYRGMKVPEELLSGHHKLIELWKLWHRIENTVKKRPDLIPKDLTELEKDILNSILSGKSFKEWLKEHKHLLLEHHHHHH”, which “soluble on expression in E. coli” value is on record?
Answer: The value was “not soluble”.

Question: Which “soluble on expression in E. coli” value does the source give for “MSSPYILVLYYSRHGATAEMARQIARGVEQGGFEARVRTVPAVSTECEAVAPDIPAEGALYATLEDLKNCAGLALGSPTRFGNMASPLKYFLDGTSSLWLTGSLVGKPAAVFTSTASLHGGQETTQLSMLLPLLHHGMLVLGIPYSEPALLETRGGGTPYGASHFAGADGKRSLDEHELTLCRALGKRLAETAGKLGS” here?
Answer: The value was “soluble”.

Question: For “MSSRNNPARVAIVMGSKSDWATMQFAAEIFEILDVPHHVEVVSAHRTPDKLFSFAETAEENGYQVIIAGAGGAAHLPGMIAAKTLVPVLGVPVQSAALSGVDSLYSIVQMPRGIPVGTLAIGKAGAANAALLAAQILAQHDAELHQRIADWRKAQTDEVLENPDPRGTL”, which “soluble on expression in E. coli” value is on record?
Answer: The value was “not soluble”.

Question: Which “soluble on expression in E. coli” value does the source give for “MSSSHKSWNSIYEFTVKDINGVDVSLEKYRGHVCLIVNVACKCGATDKNYRQLQEMHTRLVGKGLRILAFPCNQFGGQEPWAEAEIKKFVTEKYGVQFDMFSKIKVNGSDADDLYKFLKSRQHGTLTNNIKWNFSKFLVDRQGQPVKRYSPTTAPYDIEGDIMELLEKK” here?
Answer: Its value is “soluble”.

Question: Which “soluble on expression in E. coli” value does the source give for “MSSSIPRVYSLGNSAMTYLLALRIAQLPSQPKVPSVVLLLNDQKKLNRFLNNDSKIIVKSSNNNKETYHRQFMASCVPPILSNGEIAPIENLIVSDPSSKFITAQLSKYNKSLRPETNILFLNPSLNLLEHLHRYRWRFDEARPNLFMGFTTPVDVGTIHQEFQLSLKVKGRIQFHIAKIDGFPRMSSTGKSASLSLRGDRQKNEKENNAFYKLFREISRLRSGIGSDLVSFDLHVHGFQDLFFTELEKLILESCTEPLLAVYDCVYKKELLKIPGAQDIIKKLISEQLSIIDRSYPSLNTNPNYSVIFDKERIFSLVMRDLEVNGHKRAKLAQSLNQLNQTNINELNGFFVSLGKYKKCNCKWNDILLTLIKGKQFITKQKALDYHYL” here?
Answer: Its value is “soluble”.

Question: Which “soluble on expression in E. coli” value does the source give for “MSSSLLASLSRLSLLQTRQIHQTIPAGSSVFMKRQKKIDPEVAKQRETRRRKRLEKDIRQMQKHSKKPKPVDELTLDVKSAKNIGERRRPRTELTLEQIDERAIALKDYTRSRLALQQEDDAWIRGAIESQRKALNELKMLKLELYEAAVQPAAKDLPLIVQGPSLTPPIRNYEAPDGDYIDTTRNWAS” here?
Answer: Its value is “not soluble”.

Question: For “MSSYRGGSRGGGSNYMSNLPFGLGYGDVGKNHITEFPSIPLPINGPITNKERSLAVKYINFGKTVKDGPFYTGSMSLIIDQQENSKSGKRKPNIILDEDDTNDGIERYSDKYLKKRKIGISIDDHPYNLNLFPNELYNVMGINKKKLLAISKFNNADDVFTGTGLQDENIGLSMLAKLKELAEDVDDASTGDGAAKGSKTGEGEDDDLADDDFEEDEDEEDDDDYNAEKYFNNGDDDDYGDEEDPNEEAAF”, which “soluble on expression in E. coli” value is on record?
Answer: The value was “not soluble”.

Question: For “MSTAVIVSRPPSQTASFHGPQHPNRCSFSSSSSESIPPTTGRAKGSSDFEELEIRIDKALKERDAEWRKHEKSQIQFLQNETSNMLKSLHNEINRLGNELREEKRKTLHGDDDSADKIAELEKVITEKEAYTKNLEKKVSTTIQKLQEQITIQSDRIRQLNEELSDRNQTVTHLSQQLRAIKLREAMATSQHRRRASSQLSTTSSPPMTSPSSPHRIFPPVSSGLLSASVAVTYPGNSRISIQKRSTSAMRAPTMPN”, which “soluble on expression in E. coli” value is on record?
Answer: The value was “not soluble”.

Question: For “MSTDIDCIVIGAGVVGLAIARALAAGGHEVLVAEAAEGIGTGTSSRNSEVIHAGIYYPADSLKARLCVRGKHLLYEYCAARGVPHQRLGKLIVATSDAEASQLDSIARRAGANGVDDLQHIDGAAARRLEPALHCTAALVSPSTGIVDSHALMLAYQGDAENDGAQLVFHTPLIAGRVRPEGGFELDFGGAEPMTLSCRVLINAAGLHAPGLARRIEGIPRDSIPPEYLCKGSYFTLAGRAPFSRLIYPVPQHAGLGVHLTLDLGGQAKFGPDTEWIATEDYTLDPRRADVFYAAVRSYWPALPDGALAPGYTGIRPKISGPHEPAADFAISGPASHGVAGLVNLYGIESPGLTASLAIAEETLARLAALEHHHHHH”, which “soluble on expression in E. coli” value is on record?
Answer: Its value is “soluble”.

Question: For “MSTGKIIQVIGAVIDVEFARDNTPKVYDALNVVEAGLVLEVQQQIGDGVVRTIAMGSSDGLRRGMEVKNTNAPISVPVGHGTLGRIMNVLGEPIDEAGPIEYTEKRSIHQAPPAYDELALSTEILETGIKVVDLICPFAKGGKVGLFGGAGVGKTVTMMELINNIAKEHSGYSVFAGVGERTREGNDFYYEMKDSNVLDKVSLVYGQMNEPPGNRLRVALSGLTIAEGFRDEKRDVLMFIDNIYRYTLAGTEVSALLGRMPSAVGYQPTLAAEMGALQERITSTKTGSITSVQAVYVPADDLTDPSPATTFSHLDATIVLSRQIAELGIYPAVDPLDSTSRQLDPLVVGQDHYETARAVQKVLQRYKELKDIIAILGMDELSDEDKKIVDRARKIQRFLSQPFHVAEVFTGNPGKFVSLKDTVASFKAIVNGEYDHLPEQAFYMVGSIQEAIEKAKTL”, which “soluble on expression in E. coli” value is on record?
Answer: The value was “not soluble”.

Question: For “MSTGSTKLRNVDAVIKKGKPFSILLLGTDTGALGRGKDFSARTDTMIVATINPKKESMTLTSIPRDTQVMIDGQSQKINAAYTIGGASGAVKSVEKLLDVPIDFYVLLNMGGLKQIINAMGGVTVTPKLTFKYGNANVKKGVKIKLNGAAALDYSRMRYDDPQGDYGRQKRQQQVIMAMVSQSNSLGSIANIEKITKKLAKNMRTDLTWNDMVALDTKYKNASHHAKSYTVQGTDATIDGLSYQVASSSERYKNSKRIRKALGLSNSNLTESVFSETASITTGSSSSSSSSSSTTTSSDTTTYGTSTTQDTTTQDQTTTQDQTTTNQYLEHHHHHH”, which “soluble on expression in E. coli” value is on record?
Answer: The value was “soluble”.

Question: Which “soluble on expression in E. coli” value does the source give for “MSTKYLFIYNEIREKILCNKYTMNEQLPDEMTLAKQFACSRMTIKKALDLLVSEGLIFRKRGQGTFVLSRGSSKRKLIVPERDIRGLTKISEDAHSTIDSRIIHFKLEFANEFLAEKLQVALQSPVYNIYRLRIIDGKPYVLEQTYMSTDVIPGITEDILQKSIYNYIEGKLGLHIASATKILRASSSSENEQHYLQLLPTEPVFEVEQVAYLDNGTPFEYSISRHRYDLFEFNSFALRHSS” here?
Answer: Its value is “not soluble”.

Question: With “MSTMGNEASYPAEMCSHFDNDEIKRLGRRFKKLDLDKSGSLSVEEFMSLPELRHNPLVRRVIDVFDTDGDGEVDFKEFILGTSQFSVKGDEEQKLRFAFSIYDMDKDGYISNGELFQVLKMMVGNNLTDWQLQQLVDKTIIILDKDGDGKISFEEFSAVVRDLEIHKKLVLIV” as the sequence, how does the “soluble on expression in E. coli” value read?
Answer: Its value is “soluble”.

Question: Which “soluble on expression in E. coli” value does the source give for “MSTPTVITLNDGREIQATDKPSYDEDSGFYEFEQLDGKRTRLNKDQIRTVKELLEHHHHHH” here?
Answer: The value was “not soluble”.

Question: Which “soluble on expression in E. coli” value does the source give for “MSTQIKVTPEQLEQAAKTVKNTRSSLEYIHQDLYSQTEYIASQWSGASSDRFYQMFNEAKPMMFNILQELDKIAVELERAAVKFREADELYGGNLVDSDIQEGAMCGKIPPKSEESFFNNKDLNAAWTGISTGFVDGAVDAWEGLISLGDKETWLNMRDAIVNYEETIPAALNALSDSFVNNLWHGDMESREHYAAYGIATLGLGLLGDKGLSKAGQVGKGAAITGFTKGKSLVTNSPAYRNALHILNNYEFKAGNHLSYAGVGSIQKYLQKAAPYTYEGPNGPKTIRLRLGELAGDKHPVTGIRYDLDGFPIFKALSEVKLKEADFKKSRPTHDRICSKALYEQIMKDPKLAAKFTEEEIELFKLGEVPENYTWHHHQEAGRMQLVDYETHRKTGHTGGYKIWGKDSDK” here?
Answer: Its value is “not soluble”.

Question: Which “soluble on expression in E. coli” value does the source give for “MSTSQEISDPAQATSSAQVKWPRYLEATLGFDNHWHPAAFDHELAEGEFVAVTMLGEKVLLTRAKGEVKAIADGCAHRGVPFSKEPLCFKAGTVSCWYHGWTYDLDDGRLVDVLTSPGSPVIGKIGIKVYPVQVAQGVVFVFIGDEEPHALSEDLPPGFLDEDTHLLGIRRTVQSNWRLGVENGFDTTHIFMHRNSPWVSGNRLAFPYGFVPADRDAMQVYDENWPKGVLDRLSENYMPVFEATLDGETVLSAELTGEEKKVAAQVSVWLPGVLKVDPFPDPTLIQYEFYVPISETQHEYFQVLQRKVEGPEDVKTFEVEFEERWRDDALHGFNDDDVWAREAQQEFYGERDGWSKEQLFPPDMCIVKWRTLASERGRGVRAARVEMSHHHHHH” here?
Answer: Its value is “soluble”.

Question: Which “soluble on expression in E. coli” value does the source give for “MSVDKYGKVYLIGAGPGNPNYLTKKAERLIREADVILYDRLVNPLILQYANLTTEIIDVGKKPYAKHIQQEKINECIVEAARRYNKVVRLKGGDPAIFGRVQEEVDTLNNFNIAFEIVPGVTSASAAVATMQTGLTMRAVAKSVTFSTGHFKDSEENEVDVNALVNGGTLAIYMGVKRLGKIIAQIQQYTDIDYPIAIVFQASCFNEFVVKGRLSNIVGKLEHYAIEAKPGICIIGEVVGYTENVSTTSNPTQQFYVVSGSRHDALMLCEHLYDEGYGCLLNPNDTSNGTYHSSQYDYYDAFIKQQENVTYISTDRADANTVLCH” here?
Answer: The value was “not soluble”.

Question: For “MSVDVKSDFSENESSSTPSPTTVPADVTWPHYPMMPFMQPHPLREKMLQPTFDPQIYGRWSQMGDTGFYGHPDLYPFGLPQLAANGQIPAVEAVDVKPPLSNGSSSSDSGMYPSPSDMMTPFPSTSSGAASSSELSAAAAAAANYQMRAATCYQQSVWPFMDYQQFQGFSWKMPLGNNHGKDRRSSSDGKTLPTGPGTNNVRVRTADKYRMVYSDYQRLELEKEFHTSPFITSDRKSQLSTMLSLTERQIKIWFQNRRAKDRRDKQKIRL”, which “soluble on expression in E. coli” value is on record?
Answer: The value was “not soluble”.

Question: With “MSVLQKIADIEAEMARTQKNKATNAHLGILKAKLAKLRRDLITPKGGGGGPGEGFDVAKTGDARIGFVGFPSVGKSTLLCNLAGVFSEVAAYEFTTLTTVPGVIRYKGAKIQLLDLPGIIEGAKDGKGRGKQVIAVARTCSLILMVLDVMKPLQHKKLLEYELEGFGIRLNKQPPNIGYKRKEKGGINLTMLVPQSELDLDLVKSILAEYRIHNADITLRYDATSEDLIDVIEGNRIYIPCIYVLNKIDQISIEELDIIYRIPHTVPISAHHKWNFDDLLEKVWEYLNLIRIYTKPKGQLPDYSQPIVLNAERKSIEDLCTKIHKSLQKDFKCALVWGASAKHNPQRVGRDHVLIDEDVVQVIKKV” as the sequence, how does the “soluble on expression in E. coli” value read?
Answer: The value was “not soluble”.

Question: Which “soluble on expression in E. coli” value does the source give for “MSVPGPSSPDGALTRPPYCLEAGEPTPGLSDTSPDEGLIEDLTIEDKAVEQLAEGLLSHYLPDLQRSKQALQELTQNQVVLLDTLEQEISKFKECHSMLDINALFAEAKHYHAKLVNIRKEMLMLHEKTSKLKKRALKLQQKRQKEELEREQQREKEFEREKQLTARPAKRM” here?
Answer: Its value is “soluble”.

Question: Which “soluble on expression in E. coli” value does the source give for “MSVSRRDVLKFAAATPGVLGLGVVASSLRAAPASAGSLGTLLDYAAGVIPASQIRAAGAVGAIRYVSDRRPGGAWMLGKPIQLSEARDLSGNGLKIVSCYQYGKGSTADWLGGASAGVQHARRGSELHAAAGGPTSAPIYASIDDNPSYEQYKNQIVPYLRSWESVIGHQRTGVYANSKTIDWAVNDGLGSYFWQHNWGSPKGYTHPAAHLHQVEIDKRKVGGVGVDVNQILKPQFGQWA” here?
Answer: Its value is “not soluble”.

Question: Which “soluble on expression in E. coli” value does the source give for “MSVSSEISASKLPYVRIPGSKPVPRLLKWTIFKCSFMKIRTIGLHHPDGRLYFFEFCQGKDTFVPHVCSACLPIITEKDLFPDYIVWAEEIEDYVIFAFSSMSNKMEQFVYSFETRRFVEVDLPELVYNRGDATTGDIVAALYGENETIVIERDENGAMLIRSFVHKDNSRKPVNTLVMQNIEKNGLQVGKDEEVTDISNEFGYLDYVETLPELKIKTCSANRTSIHVFSKKTGRYLKYHYVINTGSFINTSNLDCSNCNSVTSEKYLLPEYSVYSKALDARVIHCTNNLTSDIEQYTFNPDTNAFEQVYCKELVYDPNRFNRASLAAYVFPENVANNGTVIISRDVYEVIQKEKYSIVTDEYVVLPAAPVKTFAVRIQEEKQKKLDEEEQQKVLKTQELEKQKDGQIVIMELEMKEMTTLLEEKDTRIKMHVEKHRDKECELELVRRKLDDCVVRMQGAFERDIKLEEAKVQASREAKKQYENLMTILGEKE” here?
Answer: The value was “not soluble”.

— the DeepSol protein solubility set
